# In article PMC9709071:
# Columns and labels:
# [1] = target: DcR3 (UniProt O95407); test: ELISA; receptor (DR3-Fc; DcR3) immobilised on Maxisorp plates, TL1A variant titrated in 3-fold dilutions, overnight 4 °C, detected with anti-human TL1A-biotin and streptavidin-HRP; concentrations normalised to TL1A trimer; triplicate
# [2] = target: Recombinant DR3-Fc (UniProt Q93038); test: as above
# [3] = target: Recombinant DR3-Fc (UniProt Q93038); test: ELISA; DR3-Fc immobilised non-specifically on Maxisorp plates (overnight, 4 °C), casein block; TL1A added in 3-fold dilutions, overnight 4 °C; bound TL1A detected with polyclonal rabbit anti-human TL1A-biotin and streptavidin-HRP; concentrations normalised to TL1A trimers; triplicate
# Recombinant DR3-Fc, sequence (Q93038 25-199): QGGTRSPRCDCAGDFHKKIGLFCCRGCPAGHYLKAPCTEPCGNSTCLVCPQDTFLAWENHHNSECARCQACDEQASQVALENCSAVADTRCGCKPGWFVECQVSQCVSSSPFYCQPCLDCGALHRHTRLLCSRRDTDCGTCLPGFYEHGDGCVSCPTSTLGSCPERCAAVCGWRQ
# DcR3, sequence (O95407 30-300): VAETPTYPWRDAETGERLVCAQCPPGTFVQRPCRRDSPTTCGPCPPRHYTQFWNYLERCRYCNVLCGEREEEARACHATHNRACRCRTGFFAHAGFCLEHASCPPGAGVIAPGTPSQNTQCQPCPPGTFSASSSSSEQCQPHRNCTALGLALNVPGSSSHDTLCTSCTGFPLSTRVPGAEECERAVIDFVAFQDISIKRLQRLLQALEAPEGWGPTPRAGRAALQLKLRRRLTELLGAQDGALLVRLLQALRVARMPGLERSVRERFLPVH
EC50 [1],EC50 [2],EC50 [3],Substance
0.091 µM,0.114 µM,,TL1W120 (S206K) (from UniProt O95150 1-251) (ligand)
0.0114 µM,0.0777 µM,,TL1W42 (F114A) (from UniProt O95150 1-251) (ligand)
0.0088 µM,0.0417 µM,,TL1W118 (S206A) (from UniProt O95150 1-251) (ligand)
0.0382 µM,0.184 µM,,TL1W39 (L123G) (from UniProt O95150 1-251) (ligand)
0.0098 µM,0.506 µM,,TL1W125 (N207E) (from UniProt O95150 1-251) (ligand)
0.0164 µM,0.087 µM,,TL1W96 (R170E) (from UniProt O95150 1-251) (ligand)
0.0307 µM,0.281 µM,,TL1W24 (F209A) (from UniProt O95150 1-251) (ligand)
0.0272 µM,0.144 µM,,TL1W132 (T239A) (from UniProt O95150 1-251) (ligand)
0.0557 µM,0.182 µM,,TL1W84 (E120H) (from UniProt O95150 1-251) (ligand)
0.0509 µM,0.0344 µM,,TL1W81 (K111S) (from UniProt O95150 1-251) (ligand)
0.0164 µM,0.0307 µM,,TL1W40 (L123S) (from UniProt O95150 1-251) (ligand)
0.0571 µM,0.296 µM,,TL1W85 (G124S) (from UniProt O95150 1-251) (ligand)
0.0118 µM,0.336 µM,,TL1W137 (K240S) (from UniProt O95150 1-251) (ligand)
0.0086 µM,0.0268 µM,,TL1W123 (N207S) (from UniProt O95150 1-251) (ligand)
0.0037 µM,0.0134 µM,,TL1W25 (N207A) (from UniProt O95150 1-251) (ligand)
0.0057 µM,,,TL1W33 (E241L) (from UniProt O95150 1-251) (ligand)
0.008 µM,,,TL1W89 (R156Y) (from UniProt O95150 1-251) (ligand)
0.0137 µM,0.0568 µM,,TL1W126 (F209W) (from UniProt O95150 1-251) (ligand)
0.0595 µM,,,TL1W138 (K240D) (from UniProt O95150 1-251) (ligand)
0.0135 µM,,,TL1W88 (R156A) (from UniProt O95150 1-251) (ligand)
0.0169 µM,,,TL1W130 (Y238R) (from UniProt O95150 1-251) (ligand)
0.0025 µM,0.0095 µM,,TL1W31 (R103Q) (from UniProt O95150 1-251) (ligand)
0.0105 µM,,,TL1W128 (Y238S) (from UniProt O95150 1-251) (ligand)
0.0115 µM,0.0579 µM,,TL1W103 (T185A) (from UniProt O95150 1-251) (ligand)
0.0106 µM,0.0142 µM,,TL1W115 (T192F) (from UniProt O95150 1-251) (ligand)
,0.0148 µM,,TL1W87 (G124D) (from UniProt O95150 1-251) (ligand)
0.0108 µM,,,TL1W133 (T239F) (from UniProt O95150 1-251) (ligand)

EC50 [1],EC50 [2],EC50 [3],Substance
0.0071 µM,0.204 µM,,TL1W79 (R103E) (from UniProt O95150 1-251) (ligand)
0.0167 µM,0.0442 µM,,TL1W111 (S187D) (from UniProt O95150 1-251) (ligand)
0.0722 µM,0.207 µM,,TL1W43 (Y188S) (from UniProt O95150 1-251) (ligand)
0.178 µM,0.266 µM,,TL1W136 (K240F) (from UniProt O95150 1-251) (ligand)
0.0343 µM,,,TL1W27 (T239E) (from UniProt O95150 1-251) (ligand)
0.01 µM,0.0233 µM,,TL1W114 (T192A) (from UniProt O95150 1-251) (ligand)
0.0057 µM,0.0226 µM,,TL1W28 (E190G) (from UniProt O95150 1-251) (ligand)
0.0172 µM,0.105 µM,,TL1W121 (S206E) (from UniProt O95150 1-251) (ligand)
0.0022 µM,,,TL1W83 (E120K) (from UniProt O95150 1-251) (ligand)
0.0215 µM,,,TL1W134 (T239K) (from UniProt O95150 1-251) (ligand)
,,0.0273 µM,His-scTL1A TL1W19 (from UniProt O95150 84-251; O95150 84-251; O95150 84-251) (ligand)
0.0033 µM,0.025 µM,,TL1W33 (R103A) (from UniProt O95150 1-251) (ligand)
0.0047 µM,0.0164 µM,,TL1W30 (N112E) (from UniProt O95150 1-251) (ligand)
0.0233 µM,0.077 µM,,TL1W116 (T192K) (from UniProt O95150 1-251) (ligand)
1.31 µM,0.26 µM,,TL1W47 (E241A) (from UniProt O95150 1-251) (ligand)
0.0204 µM,,,TL1W101 (S176N) (from UniProt O95150 1-251) (ligand)
0.0559 µM,0.0225 µM,,TL1W93 (M158K) (from UniProt O95150 1-251) (ligand)
0.0799 µM,0.123 µM,,TL1W106 (T185D) (from UniProt O95150 1-251) (ligand)
0.0173 µM,,,TL1W139 (E241Q) (from UniProt O95150 1-251) (ligand)
0.0661 µM,0.202 µM,,TL1W112 (P189F) (from UniProt O95150 1-251) (ligand)
,0.0391 µM,,TL1W108 (S187A) (from UniProt O95150 1-251) (ligand)
0.0081 µM,0.0772 µM,,TL1W78 (R103H) (from UniProt O95150 1-251) (ligand)
,0.284 µM,,TL1W46 (T239W) (from UniProt O95150 1-251) (ligand)
0.0243 µM,0.423 µM,,TL1W37 (L123E) (from UniProt O95150 1-251) (ligand)
0.0326 µM,0.101 µM,,TL1W41 (E120A) (from UniProt O95150 1-251) (ligand)
0.0076 µM,0.71 µM,,TL1W29 (P189A) (from UniProt O95150 1-251) (ligand)
0.0278 µM,2.05 µM,,TL1W98 (K173R) (from UniProt O95150 1-251) (ligand)

EC50 [1],EC50 [2],EC50 [3],Substance
0.012 µM,0.113 µM,,TL1W117 (T192E) (from UniProt O95150 1-251) (ligand)
0.0292 µM,0.181 µM,,TL1W102 (S176K) (from UniProt O95150 1-251) (ligand)
,,0.0292 µM,HSA-scTL1A (TL1W15) (from UniProt O95150 84-251; O95150 84-251; O95150 84-251) (ligand)
0.0193 µM,0.0494 µM,,TL1W104 (T185L) (from UniProt O95150 1-251) (ligand)
0.0106 µM,0.0258 µM,,TL1W82 (K111E) (from UniProt O95150 1-251) (ligand)
0.0198 µM,1 µM,,TL1W113 (P189S) (from UniProt O95150 1-251) (ligand)
0.0187 µM,0.0587 µM,,TL1W94 (M158E) (from UniProt O95150 1-251) (ligand)
0.0154 µM,0.11 µM,,TL1W124 (N207k) (from UniProt O95150 1-251) (ligand)
,,0.0102 µM,Fc-His-TL1A (TL1W61) (complex)
0.0115 µM,0.0348 µM,,TL1W99 (S176A) (from UniProt O95150 1-251) (ligand)
0.0591 µM,0.168 µM,,TL1W44 (P189K) (from UniProt O95150 1-251) (ligand)
0.0083 µM,,,TL1W91 (R156E) (from UniProt O95150 1-251) (ligand)
0.011 µM,0.188 µM,,TL1W90 (R156K) (from UniProt O95150 1-251) (ligand)
0.0085 µM,,,TL1W135 (K240A) (from UniProt O95150 1-251) (ligand)
0.0066 µM,0.3 µM,,TL1W131 (Y238E) (from UniProt O95150 1-251) (ligand)
0.009 µM,0.446 µM,,TL1W129 (Y238K) (from UniProt O95150 1-251) (ligand)
0.015 µM,0.324 µM,,TL1W100 (S176L) (from UniProt O95150 1-251) (ligand)
0.0029 µM,,,TL1W86 (G124K) (from UniProt O95150 1-251) (ligand)
0.0067 µM,0.131 µM,,TL1W97 (K173S) (from UniProt O95150 1-251) (ligand)
0.0113 µM,0.179 µM,,TL1W105 (T185N) (from UniProt O95150 1-251) (ligand)
0.0158 µM,0.0337 µM,,TL1W110 (S187K) (from UniProt O95150 1-251) (ligand)
0.0089 µM,4.62 µM,,TL1W127 (Y238A) (from UniProt O95150 1-251) (ligand)
0.0062 µM,0.0638 µM,,TL1W107 (D186Y) (from UniProt O95150 1-251) (ligand)
0.0081 µM,0.0875 µM,,TL1W119 (S206F) (from UniProt O95150 1-251) (ligand)
0.0076 µM,0.565 µM,,TL1W32 (Y188A) (from UniProt O95150 1-251) (ligand)
